# According to JP2014185312A (dated 2014):
# No end group written: not given here.
# B1: pe-PEG20 (HER2-binding peptide of SEQ ID NO 3 modified with ICG and bound to monomaleimide linear PEG ME-200MA, MW 20000) (peptide)
# peptide: MARSGLGGKGSC
# modifications: not fully specified (residue 12); also: labelled with ICG-Sulfo-OSu, position not given here
# notes: Tested as the PEG/ICG conjugate; also called pe−PEG20
# B2: pe-PEG40 (HER2-binding peptide of SEQ ID NO 3 modified with ICG and bound to monomaleimide linear PEG ME-400MA, MW 40000) (peptide)
# peptide: MARSGLGGKGSC
# modifications: not fully specified (residue 12); also: labelled with ICG-Sulfo-OSu, position not given here
# notes: Tested as the PEG/ICG conjugate; also called pe−PEG40
# Molecular target: T1, Recombinant Human ErbB2/Fc Chimera (R&D Systems) (human, UniProt P04626 23-652)
# T1 construct: Bought reagent, immobilised by amine coupling on a GLM sensor chip (about 3000 RU); also called HER2; not shown: Fc part (and any linker or tag) of the bought chimera; not described
# Test: SPR (ProteOn XPR36), ErbB2/Fc immobilised on GLM chip, conjugate as analyte, 1:1 Langmuir fit
row,Binder,binding result
1,B1,binds
2,B2,binds
